Source: patent publication US20190142971A1, “FORMULATION AND DELIVERY OF MODIFIED NUCLEOSIDE, NUCLEOTIDE, AND NUCLEIC ACID COMPOSITIONS” (ModernaTX, Inc., priority 2013, published 2019)

System: non-human primates (cynomolgus monkey)
Experiment: Example 22: NHP hematology: neutrophils, reticulocytes, HGB, HCT, RBC (Tables 40-44)
Assay type: in vivo
Protocol: LNP formulations, shown in Table 33 (above), were administered to non-human primates (NHP) (cynomolgus monkey) (n=2) as intravenous injection (IV). The NHP were administered a single modified mRNA IV dose of 0.5 mg/kg, 0.05 mg/kg or 0.005 mg/kg of G-CSF or EPO in a dose volume of 0.5 mL/kg. The NHPs were bled before dosing with the modified mRNA LNP formulations to determine protein expression in the serum and a baseline complete blood count. After administration with the G-CSF modified mRNA formulation the NHP were bled at 8, 24, 48 and 72 hours to determined protein expression. After administration with the EPO modified mRNA formulation the NHP were bled at 8, 24, 48, 72 hours and 7 days to determined protein expression.
Samples collected from the NHPs after they were administered with G-CSF or EPO modified mRNA formulations were analyzed by ELISA to determine protein expression. Neutrophil and reticulocyte count was also determined pre-dose, 24 hours, 3 days, 7 days, 14 days and 18 days after administration of the modified G-CSF or EPO formulation.

[1] = 0.005 mg/kg, 14/18 days, Female NHP
[2] = 0.005 mg/kg, 14/18 days, Male NHP
[3] = 0.005 mg/kg, 24 hours, Female NHP
[4] = 0.005 mg/kg, 24 hours, Male NHP
[5] = 0.005 mg/kg, 3 days, Female NHP
[6] = 0.005 mg/kg, 7 days, Female NHP
[7] = 0.005 mg/kg, Pre-dose, Female NHP
[8] = 0.005 mg/kg, Pre-dose, Male NHP
[9] = 0.05 mg/kg, 14/18 days, Female NHP
[10] = 0.05 mg/kg, 14/18 days, Male NHP
[11] = 0.05 mg/kg, 24 hours, Female NHP
[12] = 0.05 mg/kg, Pre-dose, Female NHP
[13] = 0.5 mg/kg, 14/18 days, Female NHP
[14] = 0.5 mg/kg, 14/18 days, Male NHP
[15] = 0.5 mg/kg, 24 hours, Female NHP
[16] = 0.5 mg/kg, Pre-dose, Female NHP

B1: G-CSF: modified mRNA encoding human G-CSF, SEQ ID NO: 4, Cap1, fully modified with 5-methylcytosine and pseudouridine; LNP-formulated in Examples 16-22 (nucleic acid)
chain: GGGAAAUAAGAGAGAAAAGAAGAGUAAGAAGAAAUAUAAGAGCCACCAUGGCCGGUCCCGCGACCCAAAGCCCCAUGAAACUUAUGGCCCUGCAGUUGCUGCUUUGGCACUCGGCCCUCUGGACAGUCCAAGAAGCGACUCCUCUCGGACCUGCCUCAUCGUUGCCGCAGUCAUUCCUUUUGAAGUGUCUGGAGCAGGUGCGAAAGAUUCAGGGCGAUGGAGCCGCACUCCAAGAGAAGCUCUGCGCGACAUACAAACUUUGCCAUCCCGAGGAGCUCGUACUGCUCGGGCACAGCUUGGGGAUUCCCUGGGCUCCUCUCUCGUCCUGUCCGUCGCAGGCUUUGCAGUUGGCAGGGUGCCUUUCCCAGCUCCACUCCGGUUUGUUCUUGUAUCAGGGACUGCUGCAAGCCCUUGAGGGAAUCUCGCCAGAAUUGGGCCCGACGCUGGACACGUUGCAGCUCGACGUGGCGGAUUUCGCAACAACCAUCUGGCAGCAGAUGGAGGAACUGGGGAUGGCACCCGCGCUGCAGCCCACGCAGGGGGCAAUGCCGGCCUUUGCGUCCGCGUUUCAGCGCAGGGCGGGUGGAGUCCUCGUAGCGAGCCACCUUCAAUCAUUUUUGGAAGUCUCGUACCGGGUGCUGAGACAUCUUGCGCAGCCGUGAAGCGCUGCCUUCUGCGGGGCUUGCCUUCUGGCCAUGCCCUUCUUCUCUCCCUUGCACCUGUACCUCUUGGUCUUUGAAUAAAGCCUGAGUAGGAAG
modifications: Cap1, 5-methylcytosine, pseudouridine
- Female NHP HGB (0.005 mg/kg IV, 14/18 days): 129 g/L
- Female NHP Neutrophils (0.005 mg/kg IV, 14/18 days): 2.28 10^9/L
- Male NHP HGB (0.005 mg/kg IV, 14/18 days): 118 g/L
- Male NHP Neutrophils (0.005 mg/kg IV, 14/18 days): 4.31 10^9/L
- Female NHP HGB (0.005 mg/kg IV, 24 hours): 127 g/L
- Female NHP Neutrophils (0.005 mg/kg IV, 24 hours): 8.6 10^9/L
- Male NHP HGB (0.005 mg/kg IV, 24 hours): 117 g/L
- Male NHP Neutrophils (0.005 mg/kg IV, 24 hours): 16.44 10^9/L
- Female NHP HGB (0.005 mg/kg IV, 3 days): 127 g/L
- Female NHP Neutrophils (0.005 mg/kg IV, 3 days): 1.78 10^9/L
- Male NHP HGB (0.005 mg/kg IV, 3 days): 116 g/L
- Male NHP Neutrophils (0.005 mg/kg IV, 3 days): 3.74 10^9/L
- Female NHP HGB (0.005 mg/kg IV, 7 days): 129 g/L
- Female NHP Neutrophils (0.005 mg/kg IV, 7 days): 2.27 10^9/L
- Male NHP HGB (0.005 mg/kg IV, 7 days): 116 g/L
- Male NHP Neutrophils (0.005 mg/kg IV, 7 days): 7.28 10^9/L
- Female NHP HGB (0.005 mg/kg IV, Pre-dose): 129 g/L
- Female NHP Neutrophils (0.005 mg/kg IV, Pre-dose): 2.54 10^9/L
- Male NHP HGB (0.005 mg/kg IV, Pre-dose): 128 g/L
- Male NHP Neutrophils (0.005 mg/kg IV, Pre-dose): 1.52 10^9/L
- HCT [1]: 0.42 L/L
- RBC [1]: 5.34 10^12/L
- HCT [2]: 0.41 L/L
- RBC [2]: 5.37 10^12/L
- HCT [3]: 0.42 L/L
- RBC [3]: 5.35 10^12/L
- HCT [4]: 0.4 L/L
- RBC [4]: 5.34 10^12/L
- HCT [5]: 0.41 L/L
- RBC [5]: 5.24 10^12/L
- HCT (0.005 mg/kg, 3 days, Male NHP): 0.4 L/L
- RBC (0.005 mg/kg, 3 days, Male NHP): 5.32 10^12/L
- HCT [6]: 0.42 L/L
- RBC [6]: 5.34 10^12/L
- HCT (0.005 mg/kg, 7 days, Male NHP): 0.39 L/L
- RBC (0.005 mg/kg, 7 days, Male NHP): 5.25 10^12/L
- HCT [7]: 0.42 L/L
- RBC [7]: 5.36 10^12/L
- HCT [8]: 0.42 L/L
- RBC [8]: 5.67 10^12/L
- Female NHP HGB (0.05 mg/kg IV, 14/18 days): 123 g/L
- Female NHP Neutrophils (0.05 mg/kg IV, 14/18 days): 1.82 10^9/L
- Male NHP HGB (0.05 mg/kg IV, 14/18 days): 134 g/L
- Male NHP Neutrophils (0.05 mg/kg IV, 14/18 days): 3.59 10^9/L
- Female NHP HGB (0.05 mg/kg IV, 24 hours): 117 g/L
- Female NHP Neutrophils (0.05 mg/kg IV, 24 hours): 29.91 10^9/L
- Male NHP HGB (0.05 mg/kg IV, 24 hours): 122 g/L
- Male NHP Neutrophils (0.05 mg/kg IV, 24 hours): 19.92 10^9/L
- Female NHP HGB (0.05 mg/kg IV, 3 days): 115 g/L
- Female NHP Neutrophils (0.05 mg/kg IV, 3 days): 10.77 10^9/L
- Male NHP HGB (0.05 mg/kg IV, 3 days): 126 g/L
- Male NHP Neutrophils (0.05 mg/kg IV, 3 days): 7.49 10^9/L
- Female NHP HGB (0.05 mg/kg IV, 7 days): 116 g/L
- Female NHP Neutrophils (0.05 mg/kg IV, 7 days): 3.8 10^9/L
- Male NHP HGB (0.05 mg/kg IV, 7 days): 126 g/L
- Male NHP Neutrophils (0.05 mg/kg IV, 7 days): 4.13 10^9/L
- Female NHP HGB (0.05 mg/kg IV, Pre-dose): 129 g/L
- Female NHP Neutrophils (0.05 mg/kg IV, Pre-dose): 3.05 10^9/L
- Male NHP HGB (0.05 mg/kg IV, Pre-dose): 137 g/L
- Male NHP Neutrophils (0.05 mg/kg IV, Pre-dose): 13.74 10^9/L
- HCT [9]: 0.4 L/L
- RBC [9]: 5.26 10^12/L
- HCT [10]: 0.44 L/L
- RBC [10]: 5.43 10^12/L
- HCT [11]: 0.4 L/L
- RBC [11]: 5.08 10^12/L
- HCT (0.05 mg/kg, 24 hours, Male NHP): 0.39 L/L
- RBC (0.05 mg/kg, 24 hours, Male NHP): 4.96 10^12/L
- HCT (0.05 mg/kg, 3 days, Female NHP): 0.39 L/L
- RBC (0.05 mg/kg, 3 days, Female NHP): 5.04 10^12/L
- HCT (0.05 mg/kg, 3 days, Male NHP): 0.41 L/L
- RBC (0.05 mg/kg, 3 days, Male NHP): 5.13 10^12/L
- HCT (0.05 mg/kg, 7 days, Female NHP): 0.4 L/L
- RBC (0.05 mg/kg, 7 days, Female NHP): 5.05 10^12/L
- HCT (0.05 mg/kg, 7 days, Male NHP): 0.42 L/L
- RBC (0.05 mg/kg, 7 days, Male NHP): 5.17 10^12/L
- HCT [12]: 0.44 L/L
- RBC [12]: 5.64 10^12/L
- HCT (0.05 mg/kg, Pre-dose, Male NHP): 0.44 L/L
- RBC (0.05 mg/kg, Pre-dose, Male NHP): 5.68 10^12/L
- Female NHP HGB (0.5 mg/kg IV, 14/18 days): 113 g/L
- Female NHP Neutrophils (0.5 mg/kg IV, 14/18 days): 1.98 10^9/L
- Male NHP HGB (0.5 mg/kg IV, 14/18 days): 98 g/L
- Male NHP Neutrophils (0.5 mg/kg IV, 14/18 days): 2.58 10^9/L
- Female NHP HGB (0.5 mg/kg IV, 24 hours): 112 g/L
- Female NHP Neutrophils (0.5 mg/kg IV, 24 hours): 13.96 10^9/L
- Male NHP HGB (0.5 mg/kg IV, 24 hours): 113 g/L
- Male NHP Neutrophils (0.5 mg/kg IV, 24 hours): 14.92 10^9/L
- Female NHP HGB (0.5 mg/kg IV, 3 days): 114 g/L
- Female NHP Neutrophils (0.5 mg/kg IV, 3 days): 13.7 10^9/L
- Male NHP HGB (0.5 mg/kg IV, 3 days): 118 g/L
- Male NHP Neutrophils (0.5 mg/kg IV, 3 days): 9.76 10^9/L
- Female NHP HGB (0.5 mg/kg IV, 7 days): 116 g/L
- Female NHP Neutrophils (0.5 mg/kg IV, 7 days): 3.81 10^9/L
- Male NHP HGB (0.5 mg/kg IV, 7 days): 115 g/L
- Male NHP Neutrophils (0.5 mg/kg IV, 7 days): 2.74 10^9/L
- Female NHP HGB (0.5 mg/kg IV, Pre-dose): 129 g/L
- Female NHP Neutrophils (0.5 mg/kg IV, Pre-dose): 1.27 10^9/L
- Male NHP HGB (0.5 mg/kg IV, Pre-dose): 133 g/L
- Male NHP Neutrophils (0.5 mg/kg IV, Pre-dose): 1.53 10^9/L
- HCT [13]: 0.37 L/L
- RBC [13]: 4.92 10^12/L
- HCT [14]: 0.34 L/L
- RBC [14]: 4.21 10^12/L
- HCT [15]: 0.38 L/L
- RBC [15]: 4.96 10^12/L
- HCT (0.5 mg/kg, 24 hours, Male NHP): 0.37 L/L
- RBC (0.5 mg/kg, 24 hours, Male NHP): 4.66 10^12/L
- HCT (0.5 mg/kg, 3 days, Female NHP): 0.38 L/L
- RBC (0.5 mg/kg, 3 days, Female NHP): 4.97 10^12/L
- HCT (0.5 mg/kg, 3 days, Male NHP): 0.39 L/L
- RBC (0.5 mg/kg, 3 days, Male NHP): 4.91 10^12/L
- HCT (0.5 mg/kg, 7 days, Female NHP): 0.38 L/L
- RBC (0.5 mg/kg, 7 days, Female NHP): 5.04 10^12/L
- HCT (0.5 mg/kg, 7 days, Male NHP): 0.39 L/L
- RBC (0.5 mg/kg, 7 days, Male NHP): 4.8 10^12/L
- HCT [16]: 0.43 L/L
- RBC [16]: 5.57 10^12/L
- HCT (0.5 mg/kg, Pre-dose, Male NHP): 0.46 L/L
- RBC (0.5 mg/kg, Pre-dose, Male NHP): 5.57 10^12/L
- neutrophils relative to pre-dose levels (all dose groups): increase in neutrophils
